For this data set, the target named is nucleolin (NuP), recombinant human (Homo sapiens) (UniProt P19338). The experiment in a line: SPR. Conditions: SPR with recombinant human nucleolin, buffer, salt, pH and temperature not given in the material.

The values that follow come from paper PMC11270970.

Chain of nucleolin (NuP), recombinant human (Homo sapiens) (P19338 2-710): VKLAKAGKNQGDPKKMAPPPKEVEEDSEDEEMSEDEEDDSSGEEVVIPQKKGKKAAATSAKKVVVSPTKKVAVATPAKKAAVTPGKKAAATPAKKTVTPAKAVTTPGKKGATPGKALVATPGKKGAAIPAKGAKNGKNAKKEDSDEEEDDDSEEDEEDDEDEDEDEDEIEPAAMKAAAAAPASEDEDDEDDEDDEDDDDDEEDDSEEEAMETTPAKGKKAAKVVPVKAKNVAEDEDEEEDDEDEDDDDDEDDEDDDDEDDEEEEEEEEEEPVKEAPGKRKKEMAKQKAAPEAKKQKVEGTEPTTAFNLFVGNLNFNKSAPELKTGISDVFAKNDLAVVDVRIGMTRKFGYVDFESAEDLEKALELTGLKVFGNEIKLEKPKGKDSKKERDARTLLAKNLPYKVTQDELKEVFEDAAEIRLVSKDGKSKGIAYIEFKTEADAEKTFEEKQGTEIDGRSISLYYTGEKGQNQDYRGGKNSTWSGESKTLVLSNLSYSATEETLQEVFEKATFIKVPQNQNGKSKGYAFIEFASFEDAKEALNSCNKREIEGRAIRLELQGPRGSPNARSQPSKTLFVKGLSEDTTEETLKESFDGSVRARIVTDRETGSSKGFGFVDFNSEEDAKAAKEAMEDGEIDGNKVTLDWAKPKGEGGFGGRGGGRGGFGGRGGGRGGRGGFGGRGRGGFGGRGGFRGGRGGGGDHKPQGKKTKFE

Regarding GGTGGTGGTGGTTGTGGTGGTGGTGG [AS1411], the Kd (1:1 Langmuir fit, 5' CH2CH2-(OCH2CH2)3-O linker as listed in Table S1, 5' amino form also listed, form used in SPR not stated) amounted to 3.77 nM.
Turning to “GGTGGTGGTGGTTGTGGTGGTGGTGG [AS-TP (TP-amino-AS1411, 6a)]”, under “5' triptolide via acetal ester linker - amino-CH2CH2-(OCH2CH2)3-O-”, the Kd stood at 4.03 nM.

Usually Kd stands for a measure of binding affinity in units of concentration.
